Source: the supplement of paper PMC10567573

B1: S100A14 (parent)
chain: KIANLGSCNDSKLEFRSFWELIGE
B2: EMD (parent)
chain: YQSKGYNDDYYEESYFTTRTYGEP

Variants of: B1
Test: protein stability index of a GFP-peptide fusion (GPS, HEK-293T) (PSI 1-6); higher = more stable
Conditions: c terminus: a fixed tail appended
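Note: lentivirally expressed fusions sorted by FACS into six bins by GFP to DsRed ratio, PSI derived from sequencing read proportions per bin multiplied by bin number.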

Variant | protein stability index
D10G | 2.84
D10N | 2.39
D10C | 1.95
D10S | 2.4
D10V | 2.32
D10R | 1.74
D10M | 2.85
D10Y | 1.63
D10F | 1.92
D10K | 1.98
D10L | 2.55
D10H | 2.31
D10W | 3.28
D10E | 2.21
D10P | 1.64
D10I | 1.72
D10T | 1.95
D10Q | 1.7
D10A | 1.66
S7K | 1.44
S7C | 2.09
S7E | 1.87
S7L | 1.79
S7Q | 1.68
S7V | 2.58
S7H | 2.25

Variant | protein stability index
S7F | 2.13
S7I | 1.89
S7A | 1.51
S7R | 2.03
S7D | 1.96
S7W | 1.89
S7M | 1.62
S7T | 1.71
S7G | 1.62
S7N | 2.32
S7P | 2.5
S7Y | 1.83
F15N | 2.22
F15W | 2.75
F15M | 2.25
F15E | 2.65
F15A | 2.06
F15G | 1.92
F15H | 2.14
F15Q | 2.25
F15T | 2.1
F15C | 1.75
F15V | 2.56
F15L | 1.06
F15I | 2.24
F15P | 2.42

Variant | protein stability index
F15R | 2.7
F15S | 2.04
F15K | 1.88
F15Y | 1.63
F15D | 2.51
L13Q | 1.92
L13G | 2.18
L13P | 2.5
L13F | 2.21
L13E | 1.71
L13C | 1.21
L13N | 1.88
L13K | 2.04
L13R | 1.5
L13H | 2.12
L13A | 2.17
L13I | 2.13
L13T | 2.24
L13V | 1.83
L13D | 2.17
L13M | 2.03
L13W | 2.31
L13S | 2.52
L13Y | 2.12
I2Y | 1.57
I2T | 2

Variant | protein stability index
I2L | 1.8
I2Q | 1.32
I2R | 2.13
I2S | 2.9
I2H | 2.31
I2M | 1.99
I2G | 2
I2A | 1.77
I2K | 1.54
I2W | 1.88
I2D | 1.61
I2F | 1.55
I2C | 1.22
I2V | 1.88
I2N | 1.6
I2E | 1.77
I2P | 2.12
K12F | 2.76
K12S | 1.96
K12G | 1.59
K12L | 1.72
K12A | 2.02
K12V | 2.47
K12R | 2.56
K12N | 2.29
K12P | 1.95

Variant | protein stability index
K12Q | 1.26
K12C | 2.01
K12W | 2.47
K12M | 2.21
K12T | 3
K12I | 1.8
K12D | 2.24
K12H | 2.35
K12Y | 3
K12E | 3.21
N9S | 1.08
N9T | 1.56
N9H | 1.8
N9V | 2.01
N9P | 1.98
N9K | 2.23
N9Y | 1.91
N9W | 1.83
N9A | 2.06
N9F | 1.86
N9I | 1.69
N9R | 1.47
N9Q | 1.77
N9M | 1.97
N9C | 1.75
N9D | 1.59

Variant | protein stability index
N9E | 2.19
N9G | 2.22
E14N | 1.54
E14V | 1.6
E14F | 1.89
E14W | 1.08
E14I | 2.54
E14K | 1.47
E14R | 2.7
E14M | 2.13
E14Y | 2.01
E14H | 1.71
E14A | 1.81
E14S | 1.8
E14T | 1.43
E14D | 1.89
E14C | 1.48
E14L | 2.08
E14P | 1.61
E14G | 1.57
E14Q | 2.06
C8R | 2.07
C8K | 1.55
C8I | 3.2
C8F | 1.56
C8D | 2.63

Variant | protein stability index
C8L | 1.49
C8S | 1.99
C8M | 1.51
C8P | 1.79
C8G | 2.24
C8V | 2.08
C8E | 1.97
C8T | 1.76
C8A | 1.77
C8N | 1.68
C8W | 1.12
C8H | 1.22
C8Q | 1.68
G6E | 2.06
G6P | 1.67
G6K | 3.01
G6N | 2.94
G6H | 1.5
G6S | 2.1
G6M | 2.51
G6T | 1.63
G6A | 2.11
G6I | 1.75
G6Y | 1.85
G6D | 1.61
G6L | 3.46

Variant | protein stability index
G6R | 1.92
G6Q | 1.95
G6W | 2.21
G6C | 2.45
G6V | 2.51
N4P | 1.83
N4K | 3.15
N4S | 2
N4C | 1.75
N4G | 2.83
N4Q | 1.72
N4T | 1.7
N4I | 1.9
N4Y | 2.32
N4F | 2.7
N4R | 1.07
N4L | 1.67
N4W | 2.55
N4M | 1.64
N4A | 2.01
N4D | 1.73
N4H | 2.71
N4E | 1.68
N4V | 1.98
A3N | 1.54
A3T | 1.65

Variant | protein stability index
A3W | 2.28
A3M | 2.69
A3I | 1.74
A3Q | 1.98
A3L | 1.09
A3R | 1.33
A3G | 2.48
A3C | 1.62
A3D | 1.97
A3S | 1.66
A3P | 1.23
A3F | 3.12
A3Y | 1.79
A3E | 1.95
A3V | 2.78
A3H | 2.38
A3K | 1.53
L5M | 1.85
L5D | 2.67
L5H | 1.88
L5S | 2.29
L5P | 2.08
L5T | 1.62
L5N | 2.44
L5Y | 1.53
L5R | 2.25

Variant | protein stability index
L5K | 2.89
L5V | 2.09
L5Q | 2.17
L5F | 2.03
L5E | 2.74
L5G | 1.72
L5C | 2.27
L5A | 1.89
L5I | 1.41
S11W | 1.18
S11V | 2.42
S11Y | 1.59
S11P | 2.81
S11K | 1.69
S11A | 2.38
S11D | 1.89
S11T | 1.56
S11C | 2.62
S11E | 1.68
S11Q | 2.08
S11F | 2.39
S11I | 1.75
S11L | 1.52
S11R | 2
S11H | 1.62
S11N | 2.21

Variant | protein stability index
S11M | 1.4
S11G | 1.53
R16A | 1.28
K1M | 1.59
K1W | 3.31
K1E | 1.84
K1P | 1.95
K1C | 1.92
K1Q | 2.02
K1F | 2.99
K1A | 1.98
K1S | 2.19
K1N | 1.41
K1R | 1.59
K1D | 1.86
K1H | 1.61
K1I | 1.79
K1L | 1.15
K1T | 2.13
K1G | 2.04

Variants of: B2
Test: as above
Conditions: c terminus: a fixed tail appended

Variant | protein stability index
G22N | 2.46
G22W | 1.93
G22V | 2.02
G22P | 2.27
G22K | 2.85
G22H | 2.13
G22Q | 2.25
G22Y | 1.49
G22R | 2.28
G22E | 2.76
G22M | 1.96
G22F | 1.77
G22I | 2.13
G22S | 2.07
G22L | 2.01
G22T | 2.49
P24D | 2.89
P24Q | 2.52
P24E | 2.12
P24I | 1.86
P24N | 2.15
P24Y | 1.83
P24K | 2.58
P24C | 2.48
P24R | 2.05
P24T | 1.91
P24S | 2.29

Variant | protein stability index
P24H | 1.97
P24V | 1.85
P24W | 1.74
P24M | 2.28
P24G | 2.51
P24L | 2.1
P24A | 2.28
P24F | 1.57
E23S | 2.12
E23Q | 1.94
E23H | 2.19
E23M | 1.55
E23N | 2.42
E23W | 2.35
E23D | 2.28
E23T | 2.24
E23I | 1.92
E23A | 1.7
E23L | 2.18
E23P | 2.44
E23K | 2.09
E23Y | 1.99
E23G | 2
E23F | 1.51
E23C | 2.12
E23V | 2.48
E23R | 1.91
